Results from patent US20180230225A1 (LEGEND BIOTECH USA, published 2018).

T1: recombinant human CD38 protein having a C-terminal His tag (ACRO Biosystems, Cat No.: CD8-H5224) (human, UniProt P28907 43-300)
T1 construct: Bought protein; not shown: C-terminal His tag
T1 sequence (looked up): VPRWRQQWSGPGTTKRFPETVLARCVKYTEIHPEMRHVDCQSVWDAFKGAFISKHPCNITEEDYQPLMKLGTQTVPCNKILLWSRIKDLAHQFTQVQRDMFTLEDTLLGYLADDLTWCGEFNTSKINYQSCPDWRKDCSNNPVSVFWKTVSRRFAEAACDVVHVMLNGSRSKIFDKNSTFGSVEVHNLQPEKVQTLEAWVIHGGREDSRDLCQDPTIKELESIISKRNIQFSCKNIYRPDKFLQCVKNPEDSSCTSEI

T2: recombinant human BCMA protein having a C-terminal Fc tag (ACRO Biosystems, Cat No.: BC7-H5254) (human, UniProt Q02223 1-54)
T2 construct: Bought protein; Clones were also screened on CHO cells expressing human BCMA (CHO-BCMA); also called CD269; not shown: C-terminal Fc tag
T2 sequence (looked up): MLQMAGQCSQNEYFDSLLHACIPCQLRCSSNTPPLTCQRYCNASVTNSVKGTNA


Molecular target: T1, recombinant human CD38 protein having a …
Test: phage ELISA on the recombinant antigen, by a process similar to the one described for BCMA

Binder | binding result
38A37333 (VHH, Llama VHH from an immune phage library; also called anti-CD38 sdAb) VHH: DVQLVESGGGLVQPGGSLRLSCVASGLTFSSYPMMWVRQAPGKGLEWVSRISDSGGYTNYDDSVKGRFTISRDNAKNTLYLQMNSLTPEDTAVYYCRILGLPTTGQGTQVTVSS | binds
38A37336 (VHH, Llama VHH from an immune phage library; also called anti-CD38 sdAb) VHH: EVQLVESGGGLVQPGGSLRLSCAASGFTFSSNWMYWVRQAPGKGLEWVATISTDGRGTYYKDSVKGRFTVSRDNAMSTLLLQMNNLKSEDTAVYYCAKEPRVLMAYLRNLGDFGSWGQGTQVTVSS | binds
38A37699 (VHH, Llama VHH from an immune phage library; also called anti-CD38 sdAb) VHH: QVQLVESGGGLVQAGGSLRLSCAASGRIFSINAMGWYRQAPGKQRELVAAISTAGSTNYGDSVKGRFTISRDNAKNTVYLQMNSLKPEDTAVYYCNLNFPPYVYWGQGTQVTVSS | binds
38A37331 (VHH, Llama VHH from an immune phage library; also called anti-CD38 sdAb) VHH: QVKLEESGGGLVQPGESLRLSCSASGSIFKVFRVFAMSWYRQGPGKQRELVASISSGETTTYADSVKGRFTISRDNAKNTAYLQMDSLKPEDTAVYYCNADHTFTGDFWGQGTQVTVSS | binds
38A37719 (VHH, Llama VHH from an immune phage library; also called anti-CD38 sdAb) VHH: QVKLEESGGGSVQTGGSLRLSCAASASIFTRLPMGWYRQAPGKQRELVVGIVPSGRINYADSVKGRFTISRDNAKNTVYLQMNSLRPEDTAVYYCRADTFPLPTWGQGTQVTVSS | binds
38A37330 (VHH, Llama VHH from an immune phage library; also called anti-CD38 sdAb) VHH: QVQLVESGGGLVQAGDSLRLSCAASGRAYATMAWFRQAPGKEREFVAHLRVSGDTTYYTDSVKGRFTISRDNAKNTAYLQMNMLKPEDTAVYYCAAGPYGILAAARVSNPGNYDYWGQGTQVTVSS | binds
38A37334 (VHH, Llama VHH from an immune phage library; also called anti-CD38 sdAb) VHH: EVQLVESGGGLVQAGGSLRLSCAASGLTFSSYIMGWFRQAPGEERELVAEISSGGMTSYADSVKGRFTISRDNAKKTGYLQMNSLKPEDTAVYYCAAPERGSIWYSRYEYKYWGQGTQVTVSS | binds
38A37340 (VHH, Llama VHH from an immune phage library; also called anti-CD38 sdAb) VHH: DVQLVESGGGLVQAGDSLRLSCAASGRTFSSYAMAWFRQAPGKEREIVSSISTSGGITDYADSVKGRFTISKDSAKMNTVYLQMNSLEPEDTAVYYCAARTWYLRTSLQYDYWGQGTQVTVSS | binds
38A37731 (VHH, Llama VHH from an immune phage library; also called anti-CD38 sdAb) VHH: QVKLEESGGGLVQAGGSLRLSCVASGTIVSISTMGWYRQAPGKQRELVATITRRGRTNYTDSVKGRFTISRDNAKNTVYLQMNSLKPEDTAVYYCNAEVQLDIWASAYDYWGQGTQVTVAS | binds
38A37326 (VHH, Llama VHH from an immune phage library; also called anti-CD38 sdAb) VHH: EVQLVESGGGLVQAGGSLRLSCAASGRTYAMGWYRQAPGKQRDLVATISGAGNTKYADSVKGRFTISRDNAKNTMYLQMNSLKPEDTAVYYCAAGKWFPAANEYWGQGTQVTVSS | binds

Molecular target: T2, recombinant human BCMA protein having a …
Test: phage ELISA: plate coated with recombinant human BCMA protein (Fc control protein in parallel) or CHO-BCMA cells; phage supernatant, HRP anti-M13, A450
Experimental: Phage ELISA was performed to identify clones specific to the target antigens. Individual output phage clones were grown in 96-deep-well plate and rescued by M13KO7 helper phage overnight. To identify clones that bind to antigen proteins, 96-well ELISA microtiter plates were coated with recombinant human BCMA protein and Fc control protein respectively in coating buffer overnight at 4° C., and the plates were then blocked with blocking buffer. After blocking, approximately 50 μl per well of phage supernatant from the overnight cell culture was added to the plates for 1.5-hour incubation at 4° C. The plates were washed four times, and the HRP-conjugated anti-M13 monoclonal antibody was added to the plates for 45-minute incubation at 4° C. The plates were again washed five times and substrate solution was added to the wells for developing. Absorption at 450 nm was measured for each well.
To identify clones that bind CHO-BCMA cells, the CHO-BCMA cells were blocked with blocking buffer at room temperature for 1 hour. After blocking, approximately 20 μl per well of phage supernatant from the overnight cell culture was added to the cell solutions for 1-hour incubation at room temperature. After the cells were washed 4 times, the HRP-conjugated anti-M13 monoclonal antibody was added for 30-minute incubation at room temperature. The cells were washed five times and substrate solution was then added for developing. The absorption was measured at 450 nm.

Binder | binding result
269A37965 (VHH, Llama VHH from an immune phage library; also called anti-BCMA sdAb) VHH: AVQLVESGGGLVQAGDSLRLSCTASGATLTNDHMAWFRQAPGKGREFVAAIDWSGRTTNYADPVEGRFTISRNNAKNTVYLEMNSLKLEDTAVYYCAVLRAWISYDNDYWGQGTQVTVSS | binds
269A37972 (VHH, Llama VHH from an immune phage library; also called anti-BCMA sdAb) VHH: QVQLVESGGGLVQAGGSLRLSCAASGGTLSKNTVAWFRQAPGKERGFVASITWDGRTTYYADSVKGRFTISRDNAKNTVYLQMNSLKPEDTAVYVCADLGKWPAGPADYWGQGTQVTVSS | binds
269A37948 (VHH, Llama VHH from an immune phage library; also called anti-BCMA sdAb) VHH: AVQLVESGGGLVQAGDSLRLTCTASGRAFSTYFMAWFRQAPGKEREFVAGIAWSGGSTAYADSVKGRFTISRDNAKNTVYLQMNSLKSEDTAVYYCASRGIEVEEFGAWGQGTQVTVSS | binds
269A37355 (VHH, Llama VHH from an immune phage library; also called anti-BCMA sdAb) VHH: AVQLVDSGGGLVQPGGSLRLSCVASGGIFVINAMGWYRQAPGKQRELVASIRGLGRTNYDDSVKGRFTISRDNANNTVYLQMNSLEPEDTAVYYCTVYVTLLGGVNRDYWGQGTQVTVSS | binds
269A37915 (VHH, Llama VHH from an immune phage library; also called anti-BCMA sdAb) VHH: EVQLVESGGGLVQAGGSLRLSCAASGRTFSSIVMGWFRQAPGKEREFVGAIMWNDGITYLQDSVKGRFTIFRDNAKNTVYLQMNSLKLEDTAVYYCAASKGRYSEYEYWGQGTQVTVSS | binds
269A37953 (VHH, Llama VHH from an immune phage library; also called anti-BCMA sdAb) VHH: EVQLVESGGGMVQAGDSLRLSCVQSTYTVNSDVMGWFRQAPGKEREFVGAIMWNDGITYLQDSVKGRFTIFRDNAKNTVYLQMNSLKLEDTAVYYCAASKGRYSEYEYWGQGTQVTVSS | binds
269A37936 (VHH, Llama VHH from an immune phage library; also called anti-BCMA sdAb) VHH: EVQLVESGGGVVQAGGSLTVSCTASGFTFDRAVIVWFRQAPGKGREGVSFIKPSDGTIYYIDSLKGRFTISSDIAKNTVYLQMKSLESEDSAVYYCAASPEDWYTDWIDWSIYRWQHWGQGTQVTVSS | binds
